Assay results as given in patent publication US20240117029A1 (Hoffmann-La Roche, published 2024).

How the values were obtained:
[1] = target: T1, human CCL2 (MCP1) - wild type (wt) (human, UniProt P13500 24-99); assay: cell-based or functional assay
[2] = target: T1, human CCL2 (MCP1) - wild type (wt); assay: SPR Biacore T200, 37 C, antibody captured, CCL2 as analyte, 1:1 model
[3] = target: T2, human CCL2 (MCP1) - P8A variant (human, UniProt P13500 24-99); assay: as above
T2 construct: Entry is without signal peptide; P8A prevents dimer formation (pure monomer); made in-house; also called monomeric human CCL2; monomeric CCL2

| Binder | IC50, inhibition of THP-1 migration towards recombinant huCCL2 [1] | T½ [2] | T½ [3] |
| --- | --- | --- | --- |
| CKLO02 IgG1 (bispecific antibody) heavy 1: not shown heavy 2: not shown light 1: QVQLVQSGAEVKKPGSSVKVSCKASGLTISHTYMHWVRQAPGQGLEWMGRIDPDNHNTKFDPKFQGRVTITADTSTSTAYMELSSLRSEDTAVYYCARGVFGFFEHWGQGTTVTVSSASVAAPSVFIFPPSDEQLKSGTASVVCLLNNFYPREAKVQWKVDNALQSGNSQESVTEQDSKDSTYSLSSTLTLSKADYEKHKVYACEVTHQGLSSPVTKSFNRGEC light 2: EIVLTQSPATLSLSPGERATLSCRASQHVSDAYLAWYQQKPGQAPRLLIYDASDRAEGVPARFSGSGSGTDFTLTISSLEPEDFAVYYCHQYIHLHSFTFGQGTKVEIKRTVAAPSVFIFPPSDRKLKSGTASVVCLLNNFYPREAKVQWKVDNALQSGNSQESVTEQDSKDSTYSLSSTLTLSKADYEKHKVYACEVTHQGLSSPVTKSFNRGEC | 0.2 µg/mL |  |  |
| CKLO2-SG1095 (bispecific antibody) heavy 1: DIQMTQSPSSLSASVGDRVTITCKAFEDIYNRRAWYQQKPGKAPKLLIHGATSLEHGVPSRFSGSGSGTDYTLTISSLQPEDFATYYCQQFWSAPYTFGGGTKVEIKSSASTKGPSVFPLAPSSKSTSGGTAALGCLVKDYFPEPVTVSWNSGALTSGVHTFPAVLQSSGLYSLSSVVTVPSSSLGTQTYICNVNHKPSNTKVDKKVEPKSCDKTHTCPPCPAPELWNGPSVFLFPPKPKDTLMISRTPEVTCVVVDVSDEDPEVKFNWYVDGVEVHNAKTKPREELYNSTYRVVSVLTVLHRDWLNGKEYKCKVSNTALPKPIEKTISKAKGQRREPQVYTLPPCRDELTKNQVSLWCLVKGFYPSDIAVEWESNGQPENNYKTTPPVLDSDGSFFLYSKLTVDKSRWQQGNVFSCSVMHEALHAHYTRKELSLSP heavy 2: not shown light 1: QVQLVQSGAEVKKPGSSVKVSCKASGLTISHTYMHWVRQAPGQGLEWMGRIDPDNHNTKFDPKFQGRVTITADTSTSTAYMELSSLRSEDTAVYYCARGVFGFFEHWGQGTTVTVSSASVAAPSVFIFPPSDEQLKSGTASVVCLLNNFYPREAKVQWKVDNALQSGNSQESVTEQDSKDSTYSLSSTLTLSKADYEKHKVYACEVTHQGLSSPVTKSFNRGEC light 2: EIVLTQSPATLSLSPGERATLSCRASQHVSDAYLAWYQQKPGQAPRLLIYDASDRAEGVPARFSGSGSGTDFTLTISSLEPEDFAVYYCHQYIHLHSFTFGQGTKVEIKRTVAAPSVFIFPPSDRKLKSGTASVVCLLNNFYPREAKVQWKVDNALQSGNSQESVTEQDSKDSTYSLSSTLTLSKADYEKHKVYACEVTHQGLSSPVTKSFNRGEC | 0.2 µg/mL |  |  |
| CKLO2-GG01 (bispecific antibody) heavy 1: DIQMTQSPSSLSASVGDRVTITCKAFEDIYNRRAWYQQKPGKAPKLLIHGATSLEHGVPSRFSGSGSGTDYTLTISSLQPEDFATYYCQQFWSAPYTFGGGTKVEIKSSASTKGPSVFPLAPSSKSTSGGTAALGCLVKDYFPEPVTVSWNSGALTSGVHTFPAVLQSSGLYSLSSVVTVPSSSLGTQTYICNVNHKPSNTKVDKKVEPKSCDKTHTCPPCPAPEYLGGDSVFLFPPKPKDVLMISRTPEVTCVVIDVSHEDPEVKFNWYVDGVEVHNAKTKPREEQYNSTYRVVSVLPVLHRDWLNGKEYKCKVSNKALPKPIEKTISKAKGQRREPQVYTLPPCRDELTKNQVSLWCLVKGFYPSDIAVEWESNGQPENNYKTTPPVLDSDGSFFLYSKLTVDKSRWQQGNVFSCSVMHEALHAHYTRKELSLSP heavy 2: not shown light 1: QVQLVQSGAEVKKPGSSVKVSCKASGLTISHTYMHWVRQAPGQGLEWMGRIDPDNHNTKFDPKFQGRVTITADTSTSTAYMELSSLRSEDTAVYYCARGVFGFFEHWGQGTTVTVSSASVAAPSVFIFPPSDEQLKSGTASVVCLLNNFYPREAKVQWKVDNALQSGNSQESVTEQDSKDSTYSLSSTLTLSKADYEKHKVYACEVTHQGLSSPVTKSFNRGEC light 2: EIVLTQSPATLSLSPGERATLSCRASQHVSDAYLAWYQQKPGQAPRLLIYDASDRAEGVPARFSGSGSGTDFTLTISSLEPEDFAVYYCHQYIHLHSFTFGQGTKVEIKRTVAAPSVFIFPPSDRKLKSGTASVVCLLNNFYPREAKVQWKVDNALQSGNSQESVTEQDSKDSTYSLSSTLTLSKADYEKHKVYACEVTHQGLSSPVTKSFNRGEC | 0.2 µg/mL |  |  |
| CKLO2-GG02 (bispecific antibody) heavy 1: DIQMTQSPSSLSASVGDRVTITCKAFEDIYNRRAWYQQKPGKAPKLLIHGATSLEHGVPSRFSGSGSGTDYTLTISSLQPEDFATYYCQQFWSAPYTFGGGTKVEIKSSASTKGPSVFPLAPSSKSTSGGTAALGCLVKDYFPEPVTVSWNSGALTSGVHTFPAVLQSSGLYSLSSVVTVPSSSLGTQTYICNVNHKPSNTKVDKKVEPKSCDKTHTCPPCPAPEYLGGDSVFLFPPKPKDVLMISRTPEVTCVVIDVSHEDPEVKFNWYVDGVEVHNAKTKPREEQYNSTYRVVSVLPVLHRDWLNGKEYKCKVSNKALPKPIEKTISKAKGQRREPQVYTLPPCRDELTKNQVSLWCLVKGFYPSDIAVEWESNGQPENNYKTTPPVLDSDGSFFLYSKLTVDKSRWQQGNVFSCSVLHEALHAHTTRKELSLSP heavy 2: not shown light 1: QVQLVQSGAEVKKPGSSVKVSCKASGLTISHTYMHWVRQAPGQGLEWMGRIDPDNHNTKFDPKFQGRVTITADTSTSTAYMELSSLRSEDTAVYYCARGVFGFFEHWGQGTTVTVSSASVAAPSVFIFPPSDEQLKSGTASVVCLLNNFYPREAKVQWKVDNALQSGNSQESVTEQDSKDSTYSLSSTLTLSKADYEKHKVYACEVTHQGLSSPVTKSFNRGEC light 2: EIVLTQSPATLSLSPGERATLSCRASQHVSDAYLAWYQQKPGQAPRLLIYDASDRAEGVPARFSGSGSGTDFTLTISSLEPEDFAVYYCHQYIHLHSFTFGQGTKVEIKRTVAAPSVFIFPPSDRKLKSGTASVVCLLNNFYPREAKVQWKVDNALQSGNSQESVTEQDSKDSTYSLSSTLTLSKADYEKHKVYACEVTHQGLSSPVTKSFNRGEC | 0.2 µg/mL |  |  |
| CKLO2-GG03/GG04 (bispecific antibody) heavy 1: DIQMTQSPSSLSASVGDRVTITCKAFEDIYNRRAWYQQKPGKAPKLLIHGATSLEHGVPSRFSGSGSGTDYTLTISSLQPEDFATYYCQQFWSAPYTFGGGTKVEIKSSASTKGPSVFPLAPSSKSTSGGTAALGCLVKDYFPEPVTVSWNSGALTSGVHTFPAVLQSSGLYSLSSVVTVPSSSLGTQTYICNVNHKPSNTKVDKKVEPKSCDKTHTCPPCPAPEYLGGDSVFLFPPKPKDVLMISRTPEVTCVVIDVSHEDPEVKFNWYVDGVEVHNAKTKPREEQYNSTYRVVSVLPVLHRDWLNGKEYKCKVSNKALPKPIEKTISKAKGQRREPQVYTLPPCREEMTKNQVSLWCLVKGFYPSDIAVEWESNGQPENNYKTTPPVLDSDGSFFLYSKLTVDKSRWQQGNVFSCSVMHEALHAHYTRKELSLSP heavy 2: not shown light 1: QVQLVQSGAEVKKPGSSVKVSCKASGLTISHTYMHWVRQAPGQGLEWMGRIDPDNHNTKFDPKFQGRVTITADTSTSTAYMELSSLRSEDTAVYYCARGVFGFFEHWGQGTTVTVSSASVAAPSVFIFPPSDEQLKSGTASVVCLLNNFYPREAKVQWKVDNALQSGNSQESVTEQDSKDSTYSLSSTLTLSKADYEKHKVYACEVTHQGLSSPVTKSFNRGEC light 2: EIVLTQSPATLSLSPGERATLSCRASQHVSDAYLAWYQQKPGQAPRLLIYDASDRAEGVPARFSGSGSGTDFTLTISSLEPEDFAVYYCHQYIHLHSFTFGQGTKVEIKRTVAAPSVFIFPPSDRKLKSGTASVVCLLNNFYPREAKVQWKVDNALQSGNSQESVTEQDSKDSTYSLSSTLTLSKADYEKHKVYACEVTHQGLSSPVTKSFNRGEC | 0.3 µg/mL |  |  |
| 1G9 (antibody, V domains shown, Generated as IgG1 wild type and IgG1 PGLALA with kappa light chain; also called CCL2-0010) VH: QSLEESGGDLVKPGASLTLTCKASGIDFSLYSYMCWVRQAPGKGLEWIACVDAGASGSTYYASWAKGRFTISKTSSTTVTLQMTSLTAADTATYFCARGILYYTWPYPAGAIDAFDSWGPGTLVTVSS VL: AYDMTQTPASVSEPVGGTVTIKCQASESISNYLSWYQQKPGQPPKLLIYKASTLASGVPSRFKGSGSGTEYTVTISGVQSDDAATYYCQQSYSSSNVFNTFGGGTEVVVK |  | 2.95 h | 3.63 h |
| 2F6 (antibody, V domains shown, Generated as IgG1 wild type and IgG1 PGLALA with kappa light chain; also called CCL2-0014) VH: QSLEESGGGLVQPEGSLTLTCTASGFSFNNNYYMCWVRQAPGKGLEWIGCISTDDSNTHYASWAQGRFTISKASSTALTLQVAGLTVADMATYFCARDAHFTSYGYGFDLWGPGTLVTVSS VL: DIVMTQTPASVSAAVGGTVSINCRASEDIENLVAWYQQKPGQPPKLLIYQASKLASGVPSRFKGSGSGAEFTLTIGDLESADAATYYCQGDYGSGWIMYSFGGGTDLVVK |  | 0.867 h | 0.783 h |
| murine 11K2 (antibody, V domains shown, also called 11K2m; X-0048) VH: EVQLQQSGAELVKAGASVKLSCPASGLNIKDTYMHWVKQRPEQGLEWIGRIDPANGNTKFDPKFQGKATITADTSSNTAYLQLSSLTSEDTAVYYCARGVFGFFDYWGQGTTLTVSS VL: DIQMTQSSSSFSVSLGDRVTITCKATEDIYNRLAWYQQKPGSAPRLLISGATSLETGVPSRFSGSGSGKDYTLSITSLQTEDVATYYCQQFWSAPYTFGGGTKLEIK |  | 0.317 h | 8.63 h |
| 1A4 (antibody, V domains shown, also called CCL2-0008) VH: QSLEESGGDLVKPGASLTLTCTASELDFYWICWVRQAPGKGLEWIACIGAGSSGSTYYASWAKGRFTVSKTSSTTVTLQMTSLTAADTATYFCARTGTEFTYYSLWGPGTLVTVSS VL: ALVMTQTPSSVSAAVGGTVTINCQASQSVYNNNMAWYQQKPGQPPKLLIYTASSLASGVPSHFRGSGSGTQFTLTISDLESDDAATYYCAGYKSYSNDEYGFGGGTEVVVK |  | 1.67 h | 2.9 h |
| 1A5 (antibody, V domains shown, Generated as IgG1 wild type and IgG1 PGLALA with kappa light chain; also called CCL2-0009) VH: QEQLVESGGDLVKPEGSLTLTCTASGFSFSTSYWMCWVRQAPGKGLELIACISSSIGVTYYASWAEGRFTISKTSSTTVTLQMTSLTVADTATYFCARTTDDNWNVGFNLWGPGTLVTVSS VL: AYDMTQTPASVEVGVGGTVTIKCQASQSIGNRYLSWYQQKPGQPPKLLIYGTSTLASGVSSRFKGSGSGTQFTLTISGVESADSATYYCQQGATISYLDNAFGGGTEVVVK |  | 2.67 h | 2.28 h |
